A short description of data set [1]: CHX chase, Western blot, JEG3. The following applies: control: untreated (respective controls). For orientation: A western blot detects proteins with antibodies after separation by electrophoresis.
Another data set can be described thus: GATA3 Western blot, JEG3. The following applies: control: untreated.
Data set [2] in a line: CHX chase, Western blot, JEG3, hypoxia. The following applies: glycan lost; control: WT-G plasmid under 2% O2.
A short description of data set [3]: GATA3 Western blot, JEG3; mRNA equal. Conditions: glycan lost; control: WT-G plasmid.
Data set [4] is described as follows: Hypoxic rise of GATA3 protein, Western blot, JEG3. Conditions: glycan lost; control: WT-G plasmid, 2% vs 21% O2.
A short description of data set [5]: CHX chase, Western blot, JEG3, normoxia. The following applies: glycan lost; control: WT-G plasmid.
Data set [6] is described as follows: GATA3 Western blot, primary human trophoblasts. The following applies: glycan gained; control: DMSO.
A short description of data set [7]: CHX chase, Western blot, primary human trophoblasts. Conditions: glycan gained; control: untreated (respective controls).

Data on three substances can be found in publication PMC11847629.

Regarding “GATA3 (GATA binding protein 3): Ac45S (OGT inhibitor)”, the degradation_or_half_life entry in data set [1] (glycan lost) was “decreases”. For the same substance, the expression_or_secretion result in “GATA3 Western blot, JEG3” (glycan lost) is “decreases”.

As to GATA3 (GATA binding protein 3): T322A-G, the values for the degradation_or_half_life entry in data set [2] and in data set [5] were “changes” and “decreases”, respectively. The “expression_or_secretion, fold_change” value in data set [3] is recorded as “decreases”. Moreover, the expression_or_secretion result in data set [4] is recorded as “abolishes”.

“GATA3 (GATA binding protein 3): TMG (OGA inhibitor)”: the degradation_or_half_life result in data set [1] (glycan gained) and in data set [7] was “increases” in each case. The expression_or_secretion entry in data set [6] is on record as “increases”; in “GATA3 Western blot, JEG3” (glycan gained), “increases”.
